Patent US20160368960A1
Starred links: 1 amine or outer side, 2 acyl side, 3 side chain; linkers in the order of their positions; H or OH if unused. Non-standard residues stand in square brackets, D forms with d. Groups on a side chain read outwards from the residue. *: point of attachment. C20 diacid = O=C(O)CCCCCCCCCCCCCCCCCCC(=O)*; C18 diacid = O=C(O)CCCCCCCCCCCCCCCCC(=O)*; γGlu = O=C(O)[C@H](CCC(=O)[*:2])N[*:1]; AEEA = NCCOCCOCC(=O)O; Aib = CC(C)(N)C(=O)O

T1: human GLP-1 receptor (human), P43220
T1 chain: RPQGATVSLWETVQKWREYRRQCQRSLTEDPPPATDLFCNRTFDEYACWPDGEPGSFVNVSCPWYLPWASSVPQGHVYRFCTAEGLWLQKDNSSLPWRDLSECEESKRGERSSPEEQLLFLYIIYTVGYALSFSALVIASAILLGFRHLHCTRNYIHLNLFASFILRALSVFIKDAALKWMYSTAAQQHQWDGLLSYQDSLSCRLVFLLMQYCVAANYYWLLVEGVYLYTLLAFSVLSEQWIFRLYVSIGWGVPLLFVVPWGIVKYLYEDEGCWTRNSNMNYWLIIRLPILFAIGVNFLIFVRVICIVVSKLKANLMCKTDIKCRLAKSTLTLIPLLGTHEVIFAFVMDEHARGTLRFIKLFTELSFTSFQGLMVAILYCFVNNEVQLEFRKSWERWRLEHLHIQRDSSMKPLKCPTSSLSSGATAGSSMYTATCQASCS

T2: rat GLP-1-R (rat), P32301
T2 chain: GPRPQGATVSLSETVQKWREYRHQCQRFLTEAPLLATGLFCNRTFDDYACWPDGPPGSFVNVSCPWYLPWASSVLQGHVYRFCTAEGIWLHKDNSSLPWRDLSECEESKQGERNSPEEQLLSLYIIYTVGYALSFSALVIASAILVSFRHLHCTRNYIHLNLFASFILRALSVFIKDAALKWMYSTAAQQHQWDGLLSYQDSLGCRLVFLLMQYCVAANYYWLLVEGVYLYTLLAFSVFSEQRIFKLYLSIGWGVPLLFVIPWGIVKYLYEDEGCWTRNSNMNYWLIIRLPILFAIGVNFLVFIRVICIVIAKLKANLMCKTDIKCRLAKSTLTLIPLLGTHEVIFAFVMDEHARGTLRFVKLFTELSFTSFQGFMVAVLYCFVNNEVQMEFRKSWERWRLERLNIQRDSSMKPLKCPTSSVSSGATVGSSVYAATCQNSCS

B1: Compound 1 (peptide)
peptide: H-H[Aib]QGTFTSDYSKYLDEKKAK([AEEA-AEEA-γGlu-C18 diacid])EFVEWLLEGGPSSG-NH2
SMILES: CC(C)C[C@H](NC(=O)[C@H](CC(C)C)NC(=O)[C@H](Cc1c[nH]c2ccccc12)NC(=O)[C@H](CCC(=O)O)NC(=O)[C@@H](NC(=O)[C@H](Cc1ccccc1)NC(=O)[C@H](CCC(=O)O)NC(=O)[C@H](CCCCNC(=O)COCCOCCNC(=O)COCCOCCNC(=O)CC[C@H](NC(=O)CCCCCCCCCCCCCCCCC(=O)O)C(=O)O)NC(=O)[C@H](C)NC(=O)[C@H](CCCCN)NC(=O)[C@H](CCCCN)NC(=O)[C@H](CCC(=O)O)NC(=O)[C@H](CC(=O)O)NC(=O)[C@H](CC(C)C)NC(=O)[C@H](Cc1ccc(O)cc1)NC(=O)[C@H](CCCCN)NC(=O)[C@H](CO)NC(=O)[C@H](Cc1ccc(O)cc1)NC(=O)[C@H](CC(=O)O)NC(=O)[C@H](CO)NC(=O)[C@@H](NC(=O)[C@H](Cc1ccccc1)NC(=O)[C@@H](NC(=O)CNC(=O)[C@H](CCC(N)=O)NC(=O)C(C)(C)NC(=O)[C@@H](N)Cc1c[nH]cn1)[C@@H](C)O)[C@@H](C)O)C(C)C)C(=O)N[C@@H](CCC(=O)O)C(=O)NCC(=O)NCC(=O)N1CCC[C@H]1C(=O)N[C@@H](CO)C(=O)N[C@@H](CO)C(=O)NCC(N)=O
B2: Compound 4 (peptide)
peptide: H-H[Aib]QGTFTSDYSKYLDEKKAK([AEEA-AEEA-γGlu-γGlu-C20 diacid])EFVEWLLSGGPSSG-NH2
SMILES: CC(C)C[C@H](NC(=O)[C@H](CC(C)C)NC(=O)[C@H](Cc1c[nH]c2ccccc12)NC(=O)[C@H](CCC(=O)O)NC(=O)[C@@H](NC(=O)[C@H](Cc1ccccc1)NC(=O)[C@H](CCC(=O)O)NC(=O)[C@H](CCCCNC(=O)COCCOCCNC(=O)COCCOCCNC(=O)CC[C@H](NC(=O)CC[C@H](NC(=O)CCCCCCCCCCCCCCCCCCC(=O)O)C(=O)O)C(=O)O)NC(=O)[C@H](C)NC(=O)[C@H](CCCCN)NC(=O)[C@H](CCCCN)NC(=O)[C@H](CCC(=O)O)NC(=O)[C@H](CC(=O)O)NC(=O)[C@H](CC(C)C)NC(=O)[C@H](Cc1ccc(O)cc1)NC(=O)[C@H](CCCCN)NC(=O)[C@H](CO)NC(=O)[C@H](Cc1ccc(O)cc1)NC(=O)[C@H](CC(=O)O)NC(=O)[C@H](CO)NC(=O)[C@@H](NC(=O)[C@H](Cc1ccccc1)NC(=O)[C@@H](NC(=O)CNC(=O)[C@H](CCC(N)=O)NC(=O)C(C)(C)NC(=O)[C@@H](N)Cc1c[nH]cn1)[C@@H](C)O)[C@@H](C)O)C(C)C)C(=O)N[C@@H](CO)C(=O)NCC(=O)NCC(=O)N1CCC[C@H]1C(=O)N[C@@H](CO)C(=O)N[C@@H](CO)C(=O)NCC(N)=O
B3: Compound 3 (peptide)
peptide: H-H[Aib]QGTFTSDYSKYLDEKKAK([AEEA-AEEA-γGlu-γGlu-C18 diacid])EFVEWLLSGGPSSG-NH2
SMILES: CC(C)C[C@H](NC(=O)[C@H](CC(C)C)NC(=O)[C@H](Cc1c[nH]c2ccccc12)NC(=O)[C@H](CCC(=O)O)NC(=O)[C@@H](NC(=O)[C@H](Cc1ccccc1)NC(=O)[C@H](CCC(=O)O)NC(=O)[C@H](CCCCNC(=O)COCCOCCNC(=O)COCCOCCNC(=O)CC[C@H](NC(=O)CC[C@H](NC(=O)CCCCCCCCCCCCCCCCC(=O)O)C(=O)O)C(=O)O)NC(=O)[C@H](C)NC(=O)[C@H](CCCCN)NC(=O)[C@H](CCCCN)NC(=O)[C@H](CCC(=O)O)NC(=O)[C@H](CC(=O)O)NC(=O)[C@H](CC(C)C)NC(=O)[C@H](Cc1ccc(O)cc1)NC(=O)[C@H](CCCCN)NC(=O)[C@H](CO)NC(=O)[C@H](Cc1ccc(O)cc1)NC(=O)[C@H](CC(=O)O)NC(=O)[C@H](CO)NC(=O)[C@@H](NC(=O)[C@H](Cc1ccccc1)NC(=O)[C@@H](NC(=O)CNC(=O)[C@H](CCC(N)=O)NC(=O)C(C)(C)NC(=O)[C@@H](N)Cc1c[nH]cn1)[C@@H](C)O)[C@@H](C)O)C(C)C)C(=O)N[C@@H](CO)C(=O)NCC(=O)NCC(=O)N1CCC[C@H]1C(=O)N[C@@H](CO)C(=O)N[C@@H](CO)C(=O)NCC(N)=O

Target: T1, human GLP-1 receptor (human), P43220
Experiment: cell-based or functional assay

How did the EC50, cAMP production turn out when B1 was run?
Its EC50, cAMP production is 23.9 nM.

And the Emax, cAMP production?
The Emax, cAMP production was 104%.

How did the EC50, cAMP production turn out when B2 was run?
Its EC50, cAMP production is 106 nM.

What about the Emax, cAMP production of the same binder?
The Emax, cAMP production was 85.2%.

With B3 as the binder, how does the EC50, cAMP production read?
The EC50, cAMP production was 34.3 nM.

And the Emax, cAMP production?
Its Emax, cAMP production is 105%.

With H-H[Aib]QGTFTSDYSKYLDEKKAK([AEEA-AEEA-γGlu-C20 diacid])EFVEWLLEGGPSSG-NH2 [Compound 2] as the binder, how does the EC50, cAMP production read?
Its EC50, cAMP production is 83.1 nM.

What about the Emax, cAMP production of the same binder?
The Emax, cAMP production was 107%.

target: human Gcg receptor (human), P47871; experiment: cell-based or functional assay
Sequence (P47871 26-477): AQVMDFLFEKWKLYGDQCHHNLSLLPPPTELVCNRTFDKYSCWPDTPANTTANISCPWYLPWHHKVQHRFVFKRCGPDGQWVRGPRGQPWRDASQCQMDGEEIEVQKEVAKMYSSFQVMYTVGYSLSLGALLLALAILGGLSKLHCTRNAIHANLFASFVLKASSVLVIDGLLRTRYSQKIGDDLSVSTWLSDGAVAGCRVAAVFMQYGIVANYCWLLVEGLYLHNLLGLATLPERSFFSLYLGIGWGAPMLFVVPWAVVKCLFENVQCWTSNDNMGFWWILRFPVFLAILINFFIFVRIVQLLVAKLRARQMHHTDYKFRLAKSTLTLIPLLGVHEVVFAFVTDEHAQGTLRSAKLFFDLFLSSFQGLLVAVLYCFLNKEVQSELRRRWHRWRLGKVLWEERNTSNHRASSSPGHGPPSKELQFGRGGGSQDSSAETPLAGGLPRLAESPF

With B1 as the binder, how does the EC50 (nM), cAMP production in primary human hepatocytes read?
The EC50 (nM), cAMP production in primary human hepatocytes was 99.9 nM.

And the EC50, cAMP production?
Its EC50, cAMP production is 7.21 nM.

For B2, which EC50, cAMP production is on record?
Its EC50, cAMP production is 68.8 nM.

And the Emax, cAMP production?
Its Emax, cAMP production is 116%.

What does the source list for B3?
EC50, cAMP production: 15.3 nM; Emax, cAMP production: 104%

Which results are given for H-H[Aib]QGTFTSDYSKYLDEKKAK([AEEA-AEEA-γGlu-C20 diacid])EFVEWLLEGGPSSG-NH2 [Compound 2]?
EC50 (nM), cAMP production in primary human hepatocytes: 159 nM; EC50, cAMP production: 26.5 nM

Target: T2, rat GLP-1-R (rat), P32301
Experiment: cell-based or functional assay

B1 was tested. Which EC50 (nM), cAMP production in INS1 832-3 cells did it give?
Its EC50 (nM), cAMP production in INS1 832-3 cells is 26.1 nM.

And the Emax (%), cAMP production in INS1 832-3 cells?
The Emax (%), cAMP production in INS1 832-3 cells was 112%.

How did the EC50 (nM), cAMP production in INS1 832-3 cells turn out when H-H[Aib]QGTFTSDYSKYLDEKKAK([AEEA-AEEA-γGlu-C20 diacid])EFVEWLLEGGPSSG-NH2 [Compound 2] was run?
Its EC50 (nM), cAMP production in INS1 832-3 cells is 62 nM.

What about the Emax (%), cAMP production in INS1 832-3 cells of the same binder?
The Emax (%), cAMP production in INS1 832-3 cells was 104%.

target: human Gcg receptor (human), P47871; experiment: radioligand competition SPA, displacement of I-125 Gcg, hGcg-R 293HEK membranes

For B1, which Ki is on record?
Its Ki is 14.6 nM.

B2 was tested. Which Ki did it give?
The Ki was 27.4 nM.

Which Ki does the source give for B3 here?
The Ki was 37.3 nM.

H-H[Aib]QGTFTSDYSKYLDEKKAK([AEEA-AEEA-γGlu-C20 diacid])EFVEWLLEGGPSSG-NH2 [Compound 2] was tested. Which Ki did it give?
Its Ki is 17.7 nM.

Target: T1, human GLP-1 receptor (human), P43220
Experiment: radioligand competition SPA, displacement of I-125 GLP-1, hGLP-1-R 293HEK membranes

For B1, which Ki is on record?
Its Ki is 23 nM.

B2 was tested. Which Ki did it give?
Its Ki is 20.2 nM.

B3 was tested. Which Ki did it give?
Its Ki is 8.68 nM.

H-H[Aib]QGTFTSDYSKYLDEKKAK([AEEA-AEEA-γGlu-C20 diacid])EFVEWLLEGGPSSG-NH2 [Compound 2] was tested. Which Ki did it give?
The Ki was 28.6 nM.
